Assay [1] concerns the target T1, human IL-12 (human, UniProt P29460 23-328; P29459 23-219).
T1 construct: Recombinant (Peprotech); FLAG-tagged IL-12 in the flow cytometry assays, biotinylated in the IL-12Rβ2 assay; also called hIL-12
T1 sequence 1: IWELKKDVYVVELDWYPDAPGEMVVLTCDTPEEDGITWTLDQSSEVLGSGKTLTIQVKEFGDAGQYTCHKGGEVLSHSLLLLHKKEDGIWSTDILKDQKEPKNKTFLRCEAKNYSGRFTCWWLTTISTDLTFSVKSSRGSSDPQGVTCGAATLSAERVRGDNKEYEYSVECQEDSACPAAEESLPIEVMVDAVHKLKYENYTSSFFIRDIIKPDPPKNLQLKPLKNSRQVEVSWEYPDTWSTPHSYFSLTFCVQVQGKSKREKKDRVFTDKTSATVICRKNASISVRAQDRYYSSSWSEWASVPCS
T1 sequence 2: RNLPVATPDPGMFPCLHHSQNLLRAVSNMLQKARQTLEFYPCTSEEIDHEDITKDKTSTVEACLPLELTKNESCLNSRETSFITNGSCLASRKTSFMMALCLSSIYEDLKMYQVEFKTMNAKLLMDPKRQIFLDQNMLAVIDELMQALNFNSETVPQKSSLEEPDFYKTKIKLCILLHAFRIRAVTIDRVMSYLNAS
Description: SPR, purified scFv captured via FLAG. The procedure: (§1) A number of the scFv variants presented in TABLE 4 were selected for full characterization of binding kinetics, encompassing a broad range of mutation profiles and binding affinities. Large-scale protein expressions were carried out for each scFv. The expressed scFvs were purified as monomeric proteins and tested for binding against IL-12 and IL-23 by SPR (TABLE 5).
(§2) Purified scFvs were subjected to full kinetic characterization using a BIAcore T100 biosensor (GE Healthcare). Approximately 10,000 RU of the proprietry FLAG-specific capture molecule was immobilized on a CM5 Series S Sensor chip, using standard amine coupling chemistry in flow cells (FC) 1 and FC2 (or alternatively FC3 and FC4) of the BIAcore T100 Biosensor. The running buffer used was HBS-EP+ (BIAcore) and interactions measured at 30° C. or 35° C. to promote differentiation of scFvs with very similiar kd values. Peak purified FLAG-tagged scFvs (prepared as described in the previous paragraph) were diluted to 10 nM in running buffer, and captured on FC2 at a flow rate of 10 μl/min in order to capture 50 RU of scFv (typically 60 sec was sufficient to capture this level of tagged scFv). After an appropriate stabilization period, the target, IL-12 or IL-23, were passed over FC1 and FC2 at a flow rate of 60 μl/min at concentrations ranging from 81 nM to 0.13 nM (using a five-fold dilution of IL-12) and 81 nM to 1 nM (using a three-fold dilution of IL-23). The contact time for association was 180 sec and dissociation measured for 10 mins for the highest concentration and 300 sec for all other concentrations in the series. The sensorgram data from FC2 was subtracted from FC1 and a buffer only control. The curves were fitted using a 1:1 Langmuir equation to generate the kₐ, kd and KD values.

Assay [2] concerns the target T2, human IL-23 (human, UniProt P29460 23-328; Q9NPF7 20-189).
T2 construct: Recombinant (Ebioscience); HIS-tagged in flow cytometry, biotinylated in some assays; also called hIL-23; rhIL-23
T2 sequence 1: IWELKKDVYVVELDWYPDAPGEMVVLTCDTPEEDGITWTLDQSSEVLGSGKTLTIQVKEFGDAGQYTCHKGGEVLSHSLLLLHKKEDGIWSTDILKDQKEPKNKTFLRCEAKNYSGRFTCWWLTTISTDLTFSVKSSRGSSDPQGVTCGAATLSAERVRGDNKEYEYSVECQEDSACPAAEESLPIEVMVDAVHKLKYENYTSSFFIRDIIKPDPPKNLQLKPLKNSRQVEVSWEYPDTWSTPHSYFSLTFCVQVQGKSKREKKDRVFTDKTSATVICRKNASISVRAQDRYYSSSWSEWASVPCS
T2 sequence 2: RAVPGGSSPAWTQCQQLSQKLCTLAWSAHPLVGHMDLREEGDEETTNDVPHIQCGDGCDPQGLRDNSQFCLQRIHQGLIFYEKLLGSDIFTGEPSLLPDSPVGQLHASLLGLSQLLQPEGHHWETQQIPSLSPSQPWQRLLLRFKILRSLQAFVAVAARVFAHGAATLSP
Description: SPR, purified scFv captured via FLAG. How it is done: as §1, §2
On the technique in general: Surface plasmon resonance follows binding to a sensor surface in real time, without labels.

The target of assay [3] is T2, human IL-23. Kind of assay: SPR screen, crude scFv captured via FLAG. How it is done:
Approximately 6500 individual scFvs recovered from the ribosome display reactions were expressed and screened for binding against IL-23 using a high-throughout SPR assay. The variants were ranked according to the kd and the best variants were sequenced at the nucleic acid level.
High-throughput SPR screening was conducted using a BIAcore A100 biosensor (GE Healthcare). Approximately 10 000 RU of the proprietary FLAG-specific capture molecule was immobilized on a CM5 Series S Sensor chip, using standard amine coupling chemistry on Spots 1 & 5 (outer spots) and 3,000RU to Spots 2 & 4 (inner spots) in each of the four flow cells of the BIAcore A100 Biosensor. The running buffer used was HBS-EP+ (BIAcore) and all interactions measured at 25° C. Crude periplasmic preparations of FLAG-tagged scFvs (prepared as described in the previous paragraph), were diluted two-fold in running buffer before capturing at a flow rate of 5u1/min for 60 sec. Approx. 100RU (on outer spots) and 50RU (on inner spots) of tagged scFv was captured. Following a 2 min stabilization period, IL-23 was passed over all spots of all four flow cells simultaneously at a flow rate of 30u1/min for 120 sec and dissociation monitored for 200 sec. Generated sensorgrams were referenced against the unmodified spot 3 of each flow cell, and fitted using a 1:1 Langmuir equation with R1 set to local to account for varying ligand densities to generate the kₐ, kd and KD values.

Assay [4] has as its target T1, human IL-12. Kind of assay: ELISA, coated IL-12. A digest of the protocol:
(§3)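 Each value is an absorbance measuring binding. Plates (Maxisorp) carried cytokine coated at 1 μg/mL in carbonate buffer pH 9.6 overnight at 4° C, were blocked with 1% BSA in PBS for 1 hour at 25° C, and received antibody titrations for 1 hour at 25° C. Detection used goat anti-human IgG or anti-murine immunoglobulin HRP at 1:2000 for 1 hour, then TMB stopped with 1M HCl, with absorbance taken at 450 nm (reference 620 nm).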
In general terms: ELISA stands for enzyme-linked immunosorbent assay.

The target of assay [5] is T2, human IL-23. Description: ELISA, coated IL-23. The gist of the method: as §3

B1: scFv CE-B1 (scFv)
scFv: QVQLVQSGAEVKKPGASVKVSCKASGYTLTDYYLHWVRQAPGQGLEWMGWIDPENGDTEYAPKFQGRVTMTTDTSTSTAYMELRSLRSDDTAVYYCNANKELRYFDVWGQGTMVTVSSGGGGSGGGGSGGGGSEIVMTQSPATLSVSPGERATLSCRASQSISINLHWYQQKPGQAPRLLIYFASQSISGIPARFSGSGSGTEFTLTISSLQSEDFAVYYCQQSNSFPLTFGGGTKVEIKR
notes: scFv-80 variant: VH F29L; not shown: proprietary C-terminal FLAG tag
B1: the figures for the dissociation constant (Kd) in assay [1] and in assay [2] were 0.089 nM and 0.098 nM, respectively. Moreover, the koff in assay [1] worked out at 0.00018 s⁻¹; in assay [2], 3e-05 s⁻¹; in assay [3] it was 0.00028 s⁻¹. The kon came to 2e+06 M⁻¹ s⁻¹ in assay [1] and 310000 M⁻¹ s⁻¹ in assay [2].

B2: scFv CR-B1 (scFv)
scFv: QVQLVQSGAEVKKPGASVKVSCKASGYTFTDYYLHWVRQAPGQGLEWMGWIDPENGDTEYAPKFQGRVTMTTDTSTSTAYMELRSLRSEDTAVYYCNANKELRYFDVWGQGTMVTVSSGGGGSGGGGSGGGGSEIVMTQSPATLSVSPGERATLSCRASQSISINLHWYQQKPGQAPRLLIYFASQSISGIPARFSGSGSGTEFTLTISSLQSEDFAVYYCQQSNSFPLTFGGGTKVEIKR
notes: scFv-80 variant: VH D85E; not shown: proprietary C-terminal FLAG tag
Regarding B2, in assay [1], the Kd came to 0.23 nM, the koff worked out at 0.00044 s⁻¹ and the kon stood at 1.9e+06 M⁻¹ s⁻¹. For the same molecule, in assay [2], the Kd amounted to 0.13 nM, the koff was found to be 4.1e-05 s⁻¹ and the kon was determined as 320000 M⁻¹ s⁻¹. Besides, in assay [3], the koff was determined as 0.00026 s⁻¹.

B3: Antibody 128 (antibody, human IgG1, kappa)
heavy chain: not shown
light chain: DIQMTQSPSSVSATVGDRVTITCRASQSISINLHWYQQKPGKAPKLLIYFASQSISGVPSRFSGSGSGTDFSLTINSLQPEDFATYYCQQSNSFPLTFGGGTKVEIKRTVAAPSVFIFPPSDEQLKSGTASVVCLLNNFYPREAKVQWKVDNALQSGNSQESVTEQDSKDSTYSLSSTLTLSKADYEKHKVYACEVTHQGLSSPVTKSFNRGEC
As to B3, the binding result in assay [4] and in assay [5] was “binds” throughout.

B4: Antibody 133 (antibody, human IgG1, kappa, V domains shown)
VH: EVQLVQSGAEVKKPGATVKISCKASGYTFSDYYLHWVRQAPEKGLEWMGWIDPENGDTEYAPKFQGRVTITADTSTDTGYLELSSLRSEDTAVYYCAANKELRYFDVWGQGTLVTVSS
VL: DIQMTQSPSSVSASVGDRVTITCRASQSISINLHWYQQKPGEAPKLLIYFASQSISGVPSRFSGSGSGTDFSLTINSLQPEDFATYYCQQSNSFPLTFGGGTKVEIKR
Regarding B4, the binding result in assay [4] and in assay [5] was “binds” throughout.

B5: Antibody 130 (antibody, human IgG1, kappa)
heavy: not shown
light: DIQMTQSPSSVSASPGDRVTITCRASQSISINLHWYQQKPGKAPKLLIYFASQSISGVPSRFSGSGSGTDFSLTINSLQPEDFATYYCQQSNSFPLTFGGGTKVEIKRTVAAPSVFIFPPSDEQLKSGTASVVCLLNNFYPREAKVQWKVDNALQSGNSQESVTEQDSKDSTYSLSSTLTLSKADYEKHKVYACEVTHQGLSSPVTKSFNRGEC
For the molecule B5, the binding result in assay [4] and in assay [5] was “binds” in each case.

B6: Antibody 132 (antibody, human IgG1, kappa, V domains shown)
VH: EVQLVQSGAEVKKPGATVKISCKASGYTFSDYYLHWVRQAPEKGLEWMGWIDPENGDTEYAPKFQGRVTITADTSTDTGYLELSSLRSEDTAVYYCAANKELRYFDVWGQGTLVTVSS
VL: DIQMTQSPSSVSASVGDRVTITCRASQSISINLHWYQQKPHKAPKLLIYFASQSISGVPSRFSGSGSGTDFSLTINSLQPEDFATYYCQQSNSFPLTFGGGTKVEIKR
Regarding B6, the binding result in assay [4] and in assay [5] was “binds” each time.

B7: Antibody 131 (antibody, human IgG1, kappa, V domains shown)
VH: EVQLVQSGAEVKKPGATVKISCKASGYTFSDYYLHWVRQAPEKGLEWMGWIDPENGDTEYAPKFQGRVTITADTSTDTGYLELSSLRSEDTAVYYCAANKELRYFDVWGQGTLVTVSS
VL: DIQMTQSPSSVSASVGDRVTITCRASQSISINLHWYQQKSGKAPKLLIYFASQSISGVPSRFSGSGSGTDFSLTINSLQPEDFATYYCQQSNSFPLTFGGGTKVEIKR
B7: the binding result in assay [4] and in assay [5] was “binds” each time.

By Kd is commonly meant the free concentration of one partner at which half of the binding sites on the other are occupied at equilibrium, for simple one-to-one binding. In general, koff refers to a measure of how fast the partners let go of each other. A higher koff goes with a short-lived complex. By kon is commonly meant a measure of how fast the partners come together. Low readings indicate slower complex formation, high ones faster complex formation.

Source of the values: patent US20110262445A1 (CEPHALON AUSTRALIA, published 2011).
